The target of experiment [1] is T1, EGFR-Fc (#344-ER, R&D Systems) (UniProt P00533 25-645).
T1 construct: Bought reagent; not shown: Fc part of the bought fusion
The experiment in a line: SPR, Biacore T100; ME-03S captured on human Fab binder, EGFR-Fc injected. As for the experimental part: (§1) In addition, the affinities of the prepared anti-c-Met/anti-EGFR bispecific antibody toward two types of antigens (c-Met/EGFR) were each identified using Biacore T100 (GE). A human Fab binder (GE Healthcare) was immobilized at the surface of a CM5 chip (#BR-1005-30, GE) according to the manufacturer's specifications. […] 10 mM Glycine-HCl (pH 1.5) solution was injected thereto to regenerate the surface. In order to measure affinity, the data obtained from this experiment was fitted using BIAevaluation software (GE Healthcare, Biacore T100 evaluation software).
(In general: In SPR one partner is held on a chip, and binding of the other changes the refractive index at the surface.)

For experiment [2], the target named is T2, c-Met-Fc (#358-MT/CF, R&D Systems) (human, UniProt P08581 25-932).
T2 construct: also called human c-Met/Fc fusion protein (R&D Systems); not shown: Fc part of the bought fusion
T2 sequence (P08581 25-932 limits assumed): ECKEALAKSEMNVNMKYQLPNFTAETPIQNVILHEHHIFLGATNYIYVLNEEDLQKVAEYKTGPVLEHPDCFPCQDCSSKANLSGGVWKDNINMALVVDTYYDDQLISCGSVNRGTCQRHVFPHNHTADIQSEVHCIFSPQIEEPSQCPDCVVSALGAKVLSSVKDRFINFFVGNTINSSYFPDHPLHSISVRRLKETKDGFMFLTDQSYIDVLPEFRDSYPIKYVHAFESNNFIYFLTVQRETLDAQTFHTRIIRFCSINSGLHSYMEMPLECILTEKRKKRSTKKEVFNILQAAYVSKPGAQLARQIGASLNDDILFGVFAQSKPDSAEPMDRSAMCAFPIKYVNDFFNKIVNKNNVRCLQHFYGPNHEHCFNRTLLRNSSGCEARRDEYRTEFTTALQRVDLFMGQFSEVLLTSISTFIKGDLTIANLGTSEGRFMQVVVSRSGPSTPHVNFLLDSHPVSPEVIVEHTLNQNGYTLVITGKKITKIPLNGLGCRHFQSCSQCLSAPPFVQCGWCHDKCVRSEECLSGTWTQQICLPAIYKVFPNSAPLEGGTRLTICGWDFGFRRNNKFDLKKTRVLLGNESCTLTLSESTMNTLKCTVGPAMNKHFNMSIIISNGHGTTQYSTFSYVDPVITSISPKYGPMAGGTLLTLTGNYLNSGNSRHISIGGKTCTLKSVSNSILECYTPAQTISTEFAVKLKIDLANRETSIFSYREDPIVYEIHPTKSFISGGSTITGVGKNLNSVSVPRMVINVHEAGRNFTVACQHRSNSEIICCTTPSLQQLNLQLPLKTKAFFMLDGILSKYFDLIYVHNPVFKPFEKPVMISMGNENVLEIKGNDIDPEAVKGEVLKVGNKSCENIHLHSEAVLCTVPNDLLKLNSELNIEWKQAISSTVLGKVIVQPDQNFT
The experiment in a line: SPR, Biacore T100; ME-03S captured on human Fab binder, c-Met-Fc injected. The method, then:
as §1

B1: anti-c-Met/anti-EGFR bispecific antibody ME-03S (bispecific antibody)
heavy: EVQLVESGGGLVQPGGSLRLSCAASGFTFTDYYMSWVRQAPGKGLEWLGFIRNKANGYTTEYSASVKGRFTISRDNSKNTLYLQMNSLRAEDTAVYYCARDNWFAYWGQGTLVTVSSASTKGPSVFPLAPCSRSTSESTAALGCLVKDYFPEPVTVSWNSGALTSGVHTFPAVLQSSGLYSLSSVVTVPSSNFGTQTYTCNVDHKPSNTKVDKTVERKCCVECPPCPAPPVAGPSVFLFPPKPKDTLMISRTPEVTCVVVDVSHEDPEVQFNWYVDGVEVHNAKTKPREEQFNSTFRVVSVLTVVHQDWLNGKEYKCKVSNKGLPAPIEKTISKTKGQPREPQVYTLPPSREEMTKNQVSLTCLVKGFYPSDIAVEWESNGQPENNYKTTPPMLDSDGSFFLYSKLTVDKSRWQQGNVFSCSVMHEALHNHYTQKSLSLSPGKGGGGSGGGGSQVQLVQSGAEVKKPGSSVKVSCKASGFTFTDYKIHWVRQAPGQCLEWMGYINPNSGYSTYASKFQGRVTITADKSTSTAYMELSSLRSEDTAVYYCARLSPGGYYVMDAWGQGTTVTVSSGGGGSGGGGSGGGGSDIQMTQSPSSLSASVGDRVTITCRASQGINNYLNWYQQKPGKAPKLLIYNTNNLQTGVPSRFSGSGSGTEFTLTISSLQPEDEATYYCLQHNSFPTFGQCTKLEIKRT
light: DIQMTQSPSSLSASVGDRVTITCKSSQSLLASGNQNNYLAWYQQKPGKAPKMLIIWASTRVSGVPSRFSGSGSGTDFTLTISSLQPEDFATYYCQQSYSRPYTFGQGTKVEIKRTVAAPSVFIFPPSDEQLKSGTASVVCLLNNFYPREAKVQWKVDNALQSGNSQESVTEQDSKDSTYSLSSTLTLSKADYEKHKVYACEVTHQGLSSPVTKSFNRGEC
One may read the Kd as the constant that tells how readily two partners part at equilibrium. In general, koff refers to the rate constant with which the complex falls apart. Low values mean slow dissociation, high ones fast dissociation. By kon is commonly meant the rate constant with which the complex forms. Take B1: in experiment [1], binding was characterised by a dissociation constant (Kd) of 0.12 nM, the off-rate (koff) turned out to be 2.7e-05 s⁻¹ and the on-rate (kon) is 240000 M⁻¹ s⁻¹. In experiment [2], this molecule displayed a Kd of 0.14 nM, a koff of 9.3e-05 s⁻¹ and a kon of 660000 M⁻¹ s⁻¹.

These data come from patent US20140302029A1 (SAMSUNG ELECTRONICS, published 2014).
